# Laboratory results published in US20180155451A1 (published 2018).
# T1: FcγRIIb extracellular domain with C-terminal His tag (human, UniProt P31994 43-217)
# T1 construct: extracellular domain; also called 2b; FcgRIIb; not shown: His tag at the C terminus
# T1 sequence (looked up): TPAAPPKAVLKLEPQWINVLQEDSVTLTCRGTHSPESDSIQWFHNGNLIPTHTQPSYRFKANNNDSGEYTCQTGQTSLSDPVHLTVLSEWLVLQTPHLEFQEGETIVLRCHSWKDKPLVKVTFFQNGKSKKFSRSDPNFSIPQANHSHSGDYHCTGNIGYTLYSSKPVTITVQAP
# B1: GpH7-A5/GpH7-B3 variant D265_18N/GpL16-k0 (antibody, human IgG1, kappa)
# heavy 1: not shown
# heavy 2: not shown
# light: DIVMTQSPLSLPVTPGEPASISCQASESLVHSNRNTYLHWYLQKPGQSPQLLIYKVSNRFSGVPDRFSGSGSGTDFTLKISRVEAEDVGVYYCSQNTHVPPTFGQGTKVEIERTVAAPSVFIFPPSDEQLKSGTASVVCLLNNFYPREAKVQWKVDNALQSGNSQESVTEQDSKDSTYSLSSTLTLSKADYEKHKVYACEVTHQGLSSPVTKSFNRGEC
# notes: He Ab: mutation in the GpH7-B3 H chain only; also called He Ab
# B2: GpH7-A5/GpH7-B3 variant K334_12R/GpL16-k0 (antibody, human IgG1, kappa)
# heavy 1: not shown
# heavy 2: not shown
# light: B1 light
# notes: as for B1
# B3: GpH7-A5/GpH7-B3 variant L328_04F/GpL16-k0 (antibody, human IgG1, kappa)
# heavy 1: not shown
# heavy 2: not shown
# light: B1 light
# notes: as for B1
# B4: GpH7-A5/GpH7-B3 variant N325_06M/GpL16-k0 (antibody, human IgG1, kappa)
# heavy 1: not shown
# heavy 2: not shown
# light: B1 light
# notes: as for B1
# B5: GpH7-A5/GpH7-B3 variant L328_02A/GpL16-k0 (antibody, human IgG1, kappa)
# heavy 1: not shown
# heavy 2: not shown
# light: B1 light
# notes: as for B1
# B6: GpH7-A5/GpH7-B3 variant N325_03V/GpL16-k0 (antibody, human IgG1, kappa)
# heavy 1: not shown
# heavy 2: not shown
# light: B1 light
# notes: as for B1
# B7: GpH7-A5/GpH7-B3 variant L328_13S/GpL16-k0 (antibody, human IgG1, kappa)
# heavy 1: not shown
# heavy 2: not shown
# light: B1 light
# notes: as for B1
# B8: GpH7-A5/GpH7-B3 variant L328_14T/GpL16-k0 (antibody, human IgG1, kappa)
# heavy 1: not shown
# heavy 2: not shown
# light: B1 light
# notes: as for B1
# B9: GpH7-A5/GpH7-B3 variant L328_07I/GpL16-k0 (antibody, human IgG1, kappa)
# heavy 1: not shown
# heavy 2: not shown
# light: B1 light
# notes: as for B1
# B10: GpH7-A5/GpH7-B3 variant L328_15Y/GpL16-k0 (antibody, human IgG1, kappa)
# heavy 1: not shown
# heavy 2: not shown
# light: B1 light
# notes: as for B1
# B11: GpH7-A5/GpH7-B3 variant N325_07I/GpL16-k0 (antibody, human IgG1, kappa)
# heavy 1: not shown
# heavy 2: not shown
# light: B1 light
# notes: as for B1
# B12: GpH7-A5/GpH7-B3 variant L328_19Q/GpL16-k0 (antibody, human IgG1, kappa)
# heavy 1: not shown
# heavy 2: not shown
# light: B1 light
# notes: as for B1
# B13: GpH7-A5/GpH7-B3 variant I332_04F/GpL16-k0 (antibody, human IgG1, kappa)
# heavy 1: not shown
# heavy 2: not shown
# light: B1 light
# notes: as for B1
# B14: GpH7-A5/GpH7-B3 variant D265_20W/GpL16-k0 (antibody, human IgG1, kappa)
# heavy 1: not shown
# heavy 2: not shown
# light: B1 light
# notes: as for B1
# B15: GpH7-A5/GpH7-B3 variant N325_04F/GpL16-k0 (antibody, human IgG1, kappa)
# heavy 1: not shown
# heavy 2: not shown
# light: B1 light
# notes: as for B1
# B16: GpH7-A5/GpH7-B3 variant L328_09D/GpL16-k0 (antibody, human IgG1, kappa)
# heavy 1: not shown
# heavy 2: not shown
# light: B1 light
# notes: as for B1
# B17: GpH7-A5/GpH7-B3 variant L328_20W/GpL16-k0 (antibody, human IgG1, kappa)
# heavy 1: not shown
# heavy 2: not shown
# light: B1 light
# notes: as for B1
# B18: GpH7-A5/GpH7-B3 variant L328_10E/GpL16-k0 (antibody, human IgG1, kappa)
# heavy 1: not shown
# heavy 2: not shown
# light: B1 light
# notes: as for B1
# B19: GpH7-A5/GpH7-B3 variant L328_06M/GpL16-k0 (antibody, human IgG1, kappa)
# heavy 1: not shown
# heavy 2: not shown
# light: B1 light
# notes: as for B1
# B20: GpH7-A5/GpH7-B3 variant L328_03V/GpL16-k0 (antibody, human IgG1, kappa)
# heavy 1: not shown
# heavy 2: not shown
# light: B1 light
# notes: as for B1
# Target: T1, FcγRIIb extracellular domain with …
# Assay: SPR (Biacore), relative binding, GpH7-A5/GpH7-B3/GpL16-k0 = 100
# Description: (§1) Analysis of interaction between objective antibody and the FcγR was carried out using Biacore T100 (GE Healthcare). HBS-EP+ (GE Healthcare) was used as the running buffer, and the measurement temperature was set to 25° C. Chips produced by immobilizing the antigen peptide by the amine coupling method to a Series S Sencor Chip CM5 (GE Healthcare), or alternatively, chips produced by allowing preliminarily biotinylated antigen peptides to interact with and immobilize onto a Series S Sensor Chip SA (certified) (GE Healthcare) were used. Antibodies of interest were captured onto an antigen peptide-immobilized chip, and allowed to interact to each FcγR diluted with running buffer. To regenerate and repeatedly use the chip, the antibodies captured on the chip were washed off by reacting 10 mM glycine-HCl, pH 1.5.
# (§2) The FcγR-binding activity of each antibody was assessed primarily using as an indicator the FcγR-binding activity and dissociation constant for FcγR.
row,He/Con_2b,Binder
1,6.1 % of control,B1
2,111 % of control,B2
3,219 % of control,B3
4,217 % of control,B4
5,144 % of control,B5
6,111 % of control,B6
7,149 % of control,B7
8,141 % of control,B8
9,160 % of control,B9
10,193 % of control,B10
11,171 % of control,B11
12,105 % of control,B12
13,104 % of control,B13
14,1.1 % of control,B14
15,143 % of control,B15
16,199 % of control,B16
17,235 % of control,B17
18,172 % of control,B18
19,142 % of control,B19
20,126 % of control,B20

# Target: T2, FcγRIIIa extracellular domain with C-terminal His tag (human, UniProt P08637 17-208)
# T2 construct: extracellular domain; also called 3a; FcgRIIIa; not shown: His tag at the C terminus
# T2 sequence (P08637 17-208): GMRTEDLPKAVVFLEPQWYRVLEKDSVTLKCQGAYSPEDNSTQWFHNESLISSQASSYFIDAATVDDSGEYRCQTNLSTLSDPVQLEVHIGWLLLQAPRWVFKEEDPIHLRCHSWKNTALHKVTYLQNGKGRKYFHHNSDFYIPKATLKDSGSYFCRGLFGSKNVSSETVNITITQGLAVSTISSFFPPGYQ
# Assay: as above
# Description: as §1, §2
row,He/Con_3a,Binder
1,4.6 % of control,B1
2,90.8 % of control,B2
3,79.3 % of control,B3
4,31.4 % of control,B4
5,79.1 % of control,B5
6,30.3 % of control,B6
7,71.7 % of control,B7
8,75.3 % of control,B8
9,84 % of control,B9
10,68.3 % of control,B10
11,28.7 % of control,B11
12,81.1 % of control,B12
13,97.6 % of control,B13
14,-0.5 % of control,B14
15,20.7 % of control,B15
16,47.8 % of control,B16
17,37.4 % of control,B17
18,53.4 % of control,B18
19,78.6 % of control,B19
20,78.7 % of control,B20
